For test [1], the target named is T1, mouse FcγRI (mouse, UniProt P26151 25-297).
T1 construct: bought; also called mFcgRI; mFcgR 1
T1 sequence (looked up): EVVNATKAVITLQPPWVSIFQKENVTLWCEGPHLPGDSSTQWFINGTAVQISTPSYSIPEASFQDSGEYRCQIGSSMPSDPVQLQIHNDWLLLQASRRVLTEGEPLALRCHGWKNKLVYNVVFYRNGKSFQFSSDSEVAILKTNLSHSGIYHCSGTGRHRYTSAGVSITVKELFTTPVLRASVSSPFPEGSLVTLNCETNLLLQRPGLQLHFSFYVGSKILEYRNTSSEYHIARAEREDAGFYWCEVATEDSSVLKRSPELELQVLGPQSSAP
Briefly: SPR, antibody captured by Protein L, mouse FcγR as analyte, pH 7.4, 25 C.

For test [2], the target named is T2, mouse FcγRIV (mouse, UniProt A0A0B4J1G0 21-203).
T2 construct: bought; also called mFcgRIV; mFcgR IV; the vendor's purification tag not given
T2 sequence: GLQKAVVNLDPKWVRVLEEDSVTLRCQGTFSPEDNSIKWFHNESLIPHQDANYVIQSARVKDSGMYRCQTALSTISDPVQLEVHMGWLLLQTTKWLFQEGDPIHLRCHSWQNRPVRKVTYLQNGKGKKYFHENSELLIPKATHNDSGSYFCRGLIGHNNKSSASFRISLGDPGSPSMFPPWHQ
Described as above.

The target in test [3] is T3, mouse FcγRIIb (mouse, UniProt P08101 30-207, limits assumed).
T3 construct: bought; also called mFcgRIIb; mFcgR IIb
T3 sequence (looked up): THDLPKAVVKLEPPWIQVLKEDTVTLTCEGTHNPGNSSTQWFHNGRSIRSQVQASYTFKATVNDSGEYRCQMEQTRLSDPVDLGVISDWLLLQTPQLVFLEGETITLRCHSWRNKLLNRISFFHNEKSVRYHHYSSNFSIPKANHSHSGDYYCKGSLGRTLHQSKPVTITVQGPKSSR
The description is as above.

In test [4] the target is T4, mouse FcγRIII (mouse, UniProt P08508 31-215).
T4 construct: bought; also called mFcgRIII; mFcgR III
T4 sequence (looked up): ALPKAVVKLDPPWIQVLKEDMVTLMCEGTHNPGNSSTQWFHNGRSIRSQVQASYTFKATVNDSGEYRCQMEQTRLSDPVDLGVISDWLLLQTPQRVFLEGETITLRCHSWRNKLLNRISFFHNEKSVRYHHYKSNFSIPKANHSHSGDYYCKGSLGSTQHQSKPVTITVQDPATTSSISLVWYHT
The description is as above.

Test [5] addresses T5, human FcRn (soluble human FcRn complexed with β2-microglobulin) (human, UniProt P61769 21-119, limits assumed).
T5 construct: also called hFcRn
Nature of the test: SPR, antibody captured by Protein L, human FcRn as analyte, pH 7.0, 25 C. Background: In SPR one partner is held on a chip, and binding of the other changes the refractive index at the surface.

The next test has as its target T6, human FcγRIa (human, UniProt P12314 16-292, limits assumed).
T6 construct: also called hFcgRIa; hFcgRI
Nature of the test: SPR, antibody captured by Protein L, human FcγR as analyte, pH 7.4, 25 C.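 Note: biacore T100 or T200 with Protein L amine-coupled on a CM4 chip, FcγRs diluted in ACES saline with polysorbate 20, buffer-only injection as blank.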

Another test concerns the target T7, human FcγRIIIa(V) (human, UniProt P08637 17-208, limits assumed).
T7 construct: also called hFcgRIIIa(V); allotype V158
Described as above.

Another test concerns the target T8, human FcγRIIa(H) (human, UniProt P12318 36-217).
T8 construct: also called hFcgRIIa(H); FcγRIIa type H
T8 sequence: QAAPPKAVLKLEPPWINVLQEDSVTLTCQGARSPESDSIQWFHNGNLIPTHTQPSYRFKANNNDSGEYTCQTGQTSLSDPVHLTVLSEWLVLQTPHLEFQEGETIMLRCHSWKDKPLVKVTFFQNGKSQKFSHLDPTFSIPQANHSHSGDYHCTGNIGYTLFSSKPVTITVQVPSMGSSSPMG
Described as above.

The target of a further test is T9, human FcγRIIa(R) (human, UniProt P12318 36-217).
T9 construct: also called hFcgRIIa(R); FcγRIIa type R
T9 chain: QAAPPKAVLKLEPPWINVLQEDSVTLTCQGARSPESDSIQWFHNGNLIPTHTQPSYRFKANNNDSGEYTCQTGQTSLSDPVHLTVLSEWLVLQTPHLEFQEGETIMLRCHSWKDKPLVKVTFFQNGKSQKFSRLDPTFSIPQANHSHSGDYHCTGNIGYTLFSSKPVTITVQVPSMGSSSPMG
The test is described as above.

The next test deals with T10, human FcγRIIb (human, UniProt P31994 43-217, limits assumed).
T10 construct: also called hFcgRIIb; FcγIIB
T10 sequence: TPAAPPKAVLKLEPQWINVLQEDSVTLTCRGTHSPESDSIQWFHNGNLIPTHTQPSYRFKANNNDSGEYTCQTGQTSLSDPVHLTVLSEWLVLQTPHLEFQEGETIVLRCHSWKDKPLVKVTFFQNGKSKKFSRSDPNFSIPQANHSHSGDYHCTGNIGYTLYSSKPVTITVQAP
The test is described as above.

The target of test [6] is T1, mouse FcγRI. Briefly: SPR, antibody captured by Protein L, mouse FcγR as analyte, pH 7.4, 25 C. This is another data set of the same source.
Test [7] addresses T2, mouse FcγRIV. The test is described as above. This is another data set of the same source.
Test [8] deals with T3, mouse FcγRIIb. Described as above. The source holds these as a separate data set.
In test [9] the target is T4, mouse FcγRIII. Described as above. The source holds these as a separate data set.

Where two headings read alike, the source gives them in different places.

T5 sequence (chain, as listed by the source limits assumed, chain 1 of 2): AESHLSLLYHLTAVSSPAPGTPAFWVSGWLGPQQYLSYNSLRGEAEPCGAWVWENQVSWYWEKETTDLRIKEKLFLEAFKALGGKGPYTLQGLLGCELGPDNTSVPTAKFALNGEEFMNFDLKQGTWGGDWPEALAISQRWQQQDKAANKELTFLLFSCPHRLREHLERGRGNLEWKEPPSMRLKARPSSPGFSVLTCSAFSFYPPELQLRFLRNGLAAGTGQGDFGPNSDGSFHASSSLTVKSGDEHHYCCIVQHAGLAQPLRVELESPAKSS
T5 sequence (P61769 21-119 limits assumed, chain 2 of 2): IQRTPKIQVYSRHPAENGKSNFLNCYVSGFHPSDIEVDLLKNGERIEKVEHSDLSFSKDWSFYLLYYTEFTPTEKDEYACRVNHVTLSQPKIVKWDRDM
T6 sequence (P12314 16-292 limits assumed): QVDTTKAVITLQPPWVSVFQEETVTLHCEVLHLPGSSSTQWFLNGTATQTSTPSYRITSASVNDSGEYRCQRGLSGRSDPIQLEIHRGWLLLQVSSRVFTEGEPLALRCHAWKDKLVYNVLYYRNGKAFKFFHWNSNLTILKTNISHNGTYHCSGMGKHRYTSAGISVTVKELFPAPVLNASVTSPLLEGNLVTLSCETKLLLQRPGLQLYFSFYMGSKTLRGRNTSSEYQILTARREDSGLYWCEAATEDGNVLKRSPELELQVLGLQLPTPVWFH
T7 sequence (P08637 other isoform, or with tags, fused parts or gaps limits assumed): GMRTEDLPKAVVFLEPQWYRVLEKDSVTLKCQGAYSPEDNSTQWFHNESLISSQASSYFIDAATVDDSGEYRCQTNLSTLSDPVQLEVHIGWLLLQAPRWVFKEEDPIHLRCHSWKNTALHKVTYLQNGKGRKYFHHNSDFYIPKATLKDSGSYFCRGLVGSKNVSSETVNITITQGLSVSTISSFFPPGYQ

B1: antibody with VH3-IgG1-F821 heavy chain and L(WT)-CK light chain (antibody)
heavy: QVQLQESGPGLVKPSETLSLTCAVSGHSISHDHAWSWVRQPPGEGLEWIGFISYSGITNYNPSLQGRVTISRDNSKNTLYLQMNSLRAEDTAVYYCARSLARTTAMDYWGEGTLVTVSSASTKGPSVFPLAPSSKSTSGGTAALGCLVKDYFPEPVTVSWNSGALTSGVHTFPAVLQSSGLYSLSSVVTVPSSSLGTQTYICNVNHKPSNTKVDKKVEPKSCDKTHTCPPCPAPELRGGPKVFLFPPKPKDTLYISRTPEVTCVVVDVSHEDPEVKFNWYVDGVEVHNAKTKPREEQYNSTYRVVSVLTVLHQDWLNGKEYKCKVSNKALPAPIEKTISKAKGQPREPQVYTLPPSRDELTKNQVSLTCLVKGFYPSDIAVEWESNGQPENNYKTTPPVLDSDGSFFLYSKLTVDKSRWQQGNVFSCSVMHEALHYHYTQKSLSLSP
light: not shown
notes: L235R/S239K/M252Y/N434Y; copies: 2 + 2
Consider B1, for which the “BINDING AMOUNT (RU)” value with mouse FcγRI [1] was 0.6 RU; in the test with mouse FcγRIV [2] it was -3.8 RU; in the test with mouse FcγRIIb [3] it was -4.5 RU; with mouse FcγRIII [4], -20.3 RU. Besides, the affinity in test [5], expressed as Kd, was 310 nM.

B2: antibody with VH3-IgG1-F890 heavy chain and L(WT)-CK light chain (antibody)
heavy: QVQLQESGPGLVKPSETLSLTCAVSGHSISHDHAWSWVRQPPGEGLEWIGFISYSGITNYNPSLQGRVTISRDNSKNTLYLQMNSLRAEDTAVYYCARSLARTTAMDYWGEGTLVTVSSASTKGPSVFPLAPSSKSTSGGTAALGCLVKDYFPEPVTVSWNSGALTSGVHTFPAVLQSSGLYSLSSVVTVPSSSLGTQTYICNVNHKPSNTKVDKKVEPKSCDKTHTCPPCPAPELLGGPSVFLFPPKPKDTLYISRTPEVTCVVVDVSHEDPEVKFNWYVDGVEVHNAKTKPREEQYNSTYRVVSVLTVLHQDWLNGKEYKCKVSNKALPAPIEKTISKAKGQPREPQVYTLPPSRDELTKNQVSLTCLVKGFYPSDIAVEWESNGQPENNYKTTPPVLDSDGSFFLYSKLTVDKSRWQQGNVFSCSVMHEALHYHVTQKSLSLSP
light: not shown
notes: M252Y/N434Y/Y436V; copies: 2 + 2
On to B2, for which the “BINDING AMOUNT (RU)” value is 268 RU with mouse FcγRI [1]; 230 RU with mouse FcγRIV [2]; 69.3 RU in the test with mouse FcγRIIb [3]; 284 RU with mouse FcγRIII [4]; 363 RU with human FcγRIa; 180 RU in the test with human FcγRIIIa(V). Also, the “BINDING AMOUNT (RU)” value was 117 RU in the test with human FcγRIIa(H), 128 RU with human FcγRIIa(R) and 54.1 RU with human FcγRIIb. Also, the equilibrium dissociation constant (Kd) (usually the free concentration of one partner at which half of the binding sites on the other are occupied at equilibrium, for simple one-to-one binding) in test [5] is 110 nM.

B3: antibody with VH3-IgG1-F939 heavy chain and L(WT)-CK light chain (antibody)
heavy: QVQLQESGPGLVKPSETLSLTCAVSGHSISHDHAWSWVRQPPGEGLEWIGFISYSGITNYNPSLQGRVTISRDNSKNTLYLQMNSLRAEDTAVYYCARSLARTTAMDYWGEGTLVTVSSASTKGPSVFPLAPSSKSTSGGTAALGCLVKDYFPEPVTVSWNSGALTSGVHTFPAVLQSSGLYSLSSVVTVPSSSLGTQTYICNVNHKPSNTKVDKKVEPKSCDKTHTCPPCPAPELRGGPKVFLFPPKPKDTLYISRTPEVTCVVVDVSHEDPEVKFNWYVDGVEVHNAKTKPREEQYNSTYRVVSVLTVLHQDWLNGKEYKCKVSNKALPAPIEKTISKAKGQPREPQVYTLPPSRDELTKNQVSLTCLVKGFYPSDIAVEWESNGQPENNYKTTPPVLDSDGSFFLYSKLTVDKSRWQQGNVFSCSVMHEALHYHVTQKSLSLSP
light: not shown
notes: L235R/S239K/M252Y/N434Y/Y436V; copies: 2 + 2
Consider B3, for which the “BINDING AMOUNT (RU)” value is -2 RU in the test with mouse FcγRI [1]; -7.3 RU with mouse FcγRIV [2]; -6.3 RU with mouse FcγRIIb [3]; -24.9 RU with mouse FcγRIII [4]; -2.37 RU in the test with human FcγRIa; -0.75 RU in the test with human FcγRIIIa(V). Further, the “BINDING AMOUNT (RU)” value is -0.9 RU in the test with human FcγRIIa(H), -0.8 RU in the test with human FcγRIIa(R) and -0.2 RU with human FcγRIIb. Further, binding in test [5] was characterised by a dissociation constant (Kd) of 150 nM.

B4: antibody with mPM1H-mIgG1 heavy chain and L(WT)-CK light chain (antibody)
heavy: DVQLQESGPVLVKPSQSLSLTCTVTGYSITSDHAWSWIRQFPGNKLEWMGYISYSGITTYNPSLKSRISITRDTSKNQFFLQLNSVTTGDTSTYYCARSLARTTAMDYWGQGTSVTVSSAKTTPPSVYPLAPGSAAQTNSMVTLGCLVKGYFPEPVTVTWNSGSLSSGVHTFPAVLQSDLYTLSSSVTVPSSTWPSETVTCNVAHPASSTKVDKKIVPRDCGCKPCICTVPEVSSVFIFPPKPKDVLTITLTPKVTCVVVDISKDDPEVQFSWFVDDVEVHTAQTQPREEQFNSTFRSVSELPIMHQDWLNGKEFKCRVNSAAFPAPIEKTISKTKGRPKAPQVYTIPPPKEQMAKDKVSLTCMITDFFPEDITVEWQWNGQPAENYKNTQPIMDTDGSYFVYSKLNVQKSNWEAGNTFTCSVLHEGLHNHHTEKSLSHSPGK
light: not shown
notes: mouse IgG1 heavy chain with natural mouse Fc region; also called mPM1-mIgG1; copies: 2 + 2
Regarding B4, the “BINDING AMOUNT (RU)” value was -2 RU in the test with mouse FcγRI [6], -3.5 RU with mouse FcγRIV [7], 202 RU with mouse FcγRIIb [8] and 450 RU in the test with mouse FcγRIII [9].

B5: antibody with mPM1H-mIgG1-mF14 heavy chain (antibody)
heavy: DVQLQESGPVLVKPSQSLSLTCTVTGYSITSDHAWSWIRQFPGNKLEWMGYISYSGITTYNPSLKSRISITRDTSKNQFFLQLNSVTTGDTSTYYCARSLARTTAMDYWGQGTSVTVSSAKTTPPSVYPLAPGSAAQTNSMVTLGCLVKGYFPEPVTVTWNSGSLSSGVHTFPAVLQSDLYTLSSSVTVPSSTWPSETVTCNVAHPASSTKVDKKIVPRDCGCKPCICTVPEVSSVFIFPPKPKDVLYITLEPKVTCVVVDISKDDPEVQFSWFVDDVEVHTAQTQPREEQFNSTFRSVSELPIMHQDWLNGKEFKCRVNSAAFPAPIEKTISKTKGRPKAPQVYTIPPPKEQMAKDKVSLTCMITDFFPEDITVEWQWNGQPAENYKNTQPIMDTDGSYFVYSKLNVQKSNWEAGNTFTCSVLHEGLKNHHTEKSLSHSPGK
light: not shown
notes: T252Y/T256E/H433K; also called mPM1-mIgG1-mF14; copies: 2 + 2
Take B5: the “BINDING AMOUNT (RU)” value with mouse FcγRI [6] was -3.7 RU; with mouse FcγRIV [7], -8 RU; in the test with mouse FcγRIIb [8], 184 RU; with mouse FcγRIII [9], 447 RU.

The values above are taken from US20200199241A1 (Chugai, published 2020).
